Measured values from patent publication US20200292537A1 (THEUNITEDSTATES OF AMERICA ASREPRESENTEDBYTHE SECRETARYOF …, published 2020).

How the values were obtained:
[1] = target: recombinant RON protein (extracellular domain, R&D Systems) (human) (UniProt Q04912); assay: full-length MET sandwich immunoassay; RON extracellular domain at 4 to 400 pM, 10-fold over rMET
[2] = target: T1, recombinant RON (cytoplasmic domain, Millipore) (UniProt Q04912 983-1400, limits assumed); assay: Western blot of recombinant RON and preincubation of the antibody with RON
T1 construct: domain: cytoplasmic domain; also called recombinant cytoplasmic RON; cytoplasmic domain of RON
T1 sequence (looked up): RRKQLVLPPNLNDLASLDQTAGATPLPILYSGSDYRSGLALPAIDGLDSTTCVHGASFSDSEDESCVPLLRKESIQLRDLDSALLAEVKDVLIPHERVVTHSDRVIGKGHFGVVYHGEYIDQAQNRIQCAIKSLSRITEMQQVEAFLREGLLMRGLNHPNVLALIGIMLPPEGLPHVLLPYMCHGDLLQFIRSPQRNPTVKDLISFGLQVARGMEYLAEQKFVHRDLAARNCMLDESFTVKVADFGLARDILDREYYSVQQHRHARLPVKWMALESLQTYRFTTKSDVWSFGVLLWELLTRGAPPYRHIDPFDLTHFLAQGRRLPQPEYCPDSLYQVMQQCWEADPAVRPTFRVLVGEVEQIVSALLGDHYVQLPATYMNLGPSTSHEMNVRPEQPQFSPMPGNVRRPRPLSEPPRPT

[3] = target: pY1235-MET (human MET phosphorylated at tyrosine 1235) (human) (UniProt P08581); assay: interaction analysis with a BIAlite-Biosensor (Pharmacia), range of protein concentrations
Chain of pY1235-MET (human MET phosphorylated at tyrosine 1235) (human) (P08581 25-1390 limits assumed): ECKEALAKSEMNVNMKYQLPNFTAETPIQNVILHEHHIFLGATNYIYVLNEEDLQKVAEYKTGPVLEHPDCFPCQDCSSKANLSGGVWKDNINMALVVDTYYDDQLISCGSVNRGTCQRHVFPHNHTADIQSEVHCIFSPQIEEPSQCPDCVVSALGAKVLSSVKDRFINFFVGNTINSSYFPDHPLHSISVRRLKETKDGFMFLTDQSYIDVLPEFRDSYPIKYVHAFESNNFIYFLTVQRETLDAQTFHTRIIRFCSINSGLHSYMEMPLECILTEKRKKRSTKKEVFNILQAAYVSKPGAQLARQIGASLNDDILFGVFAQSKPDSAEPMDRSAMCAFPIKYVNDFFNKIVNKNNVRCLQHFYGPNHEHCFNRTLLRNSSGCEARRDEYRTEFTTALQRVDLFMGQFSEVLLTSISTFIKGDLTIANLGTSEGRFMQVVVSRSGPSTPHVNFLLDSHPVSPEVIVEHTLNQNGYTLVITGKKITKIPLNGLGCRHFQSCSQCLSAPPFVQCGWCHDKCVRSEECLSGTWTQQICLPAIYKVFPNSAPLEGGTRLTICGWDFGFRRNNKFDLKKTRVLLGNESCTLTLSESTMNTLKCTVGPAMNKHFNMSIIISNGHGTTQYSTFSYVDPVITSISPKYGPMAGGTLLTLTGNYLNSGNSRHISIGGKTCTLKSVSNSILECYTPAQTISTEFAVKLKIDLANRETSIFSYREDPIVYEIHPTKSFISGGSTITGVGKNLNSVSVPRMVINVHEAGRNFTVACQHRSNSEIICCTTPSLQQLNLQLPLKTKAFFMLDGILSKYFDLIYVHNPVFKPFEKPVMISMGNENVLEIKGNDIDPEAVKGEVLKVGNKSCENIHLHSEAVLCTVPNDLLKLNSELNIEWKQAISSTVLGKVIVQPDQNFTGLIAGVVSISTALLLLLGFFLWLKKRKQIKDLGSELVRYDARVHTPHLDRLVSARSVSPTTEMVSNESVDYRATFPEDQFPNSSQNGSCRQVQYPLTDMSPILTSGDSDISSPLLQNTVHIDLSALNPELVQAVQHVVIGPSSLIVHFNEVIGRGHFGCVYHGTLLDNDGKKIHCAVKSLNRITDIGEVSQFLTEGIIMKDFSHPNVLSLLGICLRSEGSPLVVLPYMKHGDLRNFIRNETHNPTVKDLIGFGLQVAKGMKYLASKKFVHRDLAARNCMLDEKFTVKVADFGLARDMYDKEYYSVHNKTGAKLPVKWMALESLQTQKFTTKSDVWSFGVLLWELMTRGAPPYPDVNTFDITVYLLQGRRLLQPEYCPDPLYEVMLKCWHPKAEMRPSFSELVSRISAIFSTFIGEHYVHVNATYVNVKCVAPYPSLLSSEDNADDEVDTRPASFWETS

Chain of recombinant RON protein (extracellular domain, R&D Systems) (human) (Q04912 25-957): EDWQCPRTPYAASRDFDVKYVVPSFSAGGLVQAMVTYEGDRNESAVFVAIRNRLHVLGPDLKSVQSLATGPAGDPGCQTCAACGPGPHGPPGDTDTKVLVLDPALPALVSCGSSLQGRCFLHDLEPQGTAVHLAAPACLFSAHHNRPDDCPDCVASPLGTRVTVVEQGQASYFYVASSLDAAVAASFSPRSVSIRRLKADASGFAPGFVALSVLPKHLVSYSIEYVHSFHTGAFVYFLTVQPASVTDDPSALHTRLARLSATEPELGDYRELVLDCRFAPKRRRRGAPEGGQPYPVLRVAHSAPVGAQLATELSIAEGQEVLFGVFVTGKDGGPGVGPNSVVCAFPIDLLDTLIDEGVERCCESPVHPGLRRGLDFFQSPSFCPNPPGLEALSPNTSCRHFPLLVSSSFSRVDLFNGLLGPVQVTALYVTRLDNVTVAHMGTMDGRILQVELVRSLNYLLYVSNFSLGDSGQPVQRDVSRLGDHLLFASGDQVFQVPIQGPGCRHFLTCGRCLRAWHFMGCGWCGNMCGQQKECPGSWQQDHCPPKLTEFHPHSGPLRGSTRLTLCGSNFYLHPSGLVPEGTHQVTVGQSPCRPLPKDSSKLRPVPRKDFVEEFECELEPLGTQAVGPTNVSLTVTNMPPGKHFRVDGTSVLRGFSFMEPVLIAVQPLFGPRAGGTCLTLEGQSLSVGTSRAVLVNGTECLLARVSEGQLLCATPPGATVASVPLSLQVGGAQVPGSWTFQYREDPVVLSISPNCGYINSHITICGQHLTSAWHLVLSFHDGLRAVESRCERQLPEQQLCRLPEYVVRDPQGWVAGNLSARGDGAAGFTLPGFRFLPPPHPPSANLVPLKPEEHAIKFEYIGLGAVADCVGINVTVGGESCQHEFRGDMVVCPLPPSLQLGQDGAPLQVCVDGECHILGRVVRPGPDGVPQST

With “antigen affinity purified goat polyclonal anti-human MET extracellular domain antibody (catalog number AF276, R&D Systems)” the cross-reactivity [1] was < 5%.

B1: rabbit monoclonal anti-pY1235-MET antibody, clone 23111 (antibody, V domains shown)
VH: QSVEESGGRLVTPGTPLTLTCTVSGFSLSNYAMGWFRQAPGKGLEWIGIISRSGALWYANWANGRFTISKTSTTVDLKITSPTPEDTATYFCARTNYYDGYGGVDAVLTRFDFWGQGTLVTVSS
VL: DVVMTQTPSSVEAAVGGTVTIKCQASQSIGGGLSWYQQKAGQPPKLLIYGASTLESGVPSRFKGSGSGTEFTLTISDLECADAATYYCQSNYGSDIRDYGHTFGGGTEVVVKG
notes: Rabbit IgG from a hybridoma (Epitomics), later made as a recombinant protein in HEK293 cells; Biotin-conjugated when used as reporter in the sandwich immunoassay; also called antibody #23111; mAb #23111
For B1, the binding result [2] was “no binding” and the IC50 [3] was 1.2 nM.
